Experiments:
[1] = Effect of pH on MjTET activity; type: biochemical; conditions: pH 6 and 10.5; Leu-pNA, 75° C.
Method: The effect of pH on MjTET activity was determined in pH range varying from 6 to 11. The buffers used were: PIPES, pH 6-7.5; CHES, pH 8.2-10 and CAPS, pH 10.5-11. All buffers were used at 50 mM concentration in presence of 150 mM KCl, 0.1 mM CoCl2, 4 μg/mL of MjTET and 5 mM Leu-pNA as substrate. The given pH values are at 75° C. Incubation was done at 75° C. for 5 min and the quantity of produced pNA was evaluated by measuring the absorbance at 405 nm.

[2] = Effect of temperature on MjTET activity; type: biochemical; conditions: Leu-pNA
Method: Different temperatures ranging from 20 to 90° C. were tested on MjTET activity. Incubation was done in 50 mM CHES, 150 mM KCl, 0.1 mM CoCl2, pH 8.5 in presence of 4 μg/mL of protein and 5 mM Leu-pNA for 5 min. Absorbance of released pNA was measured at 405 nm.

[3] = Effect of temperature on MjTET stability (remaining aminopeptidase activity after incubation at 85° C.); type: physicochemical; conditions: incubated at 85° C.; remaining activity on Leu-pNA
Method: The effect of temperature on MjTET stability was assayed by incubating the enzyme (160 μg/ml) at 85° C. Aliquot of 10 μl was taken at different time intervals, and the remaining aminopeptidase activity was assayed against 5 mM Leu-pNA in 390 μl of 50 mM CHES, 150 mM KCl, 0.1 mM CoCl2, pH 8.5 incubated at 85° C. for 5 min. Enzymatic stability of MjTET was evaluated by measuring the quantity of produced pNA at 405 nm.

[4] = Hydrolytic activity on synthetic chromogenic and fluorogenic monoacyl compounds; type: biochemical; conditions: for cleavage of tryptophan from substrate Nt end: FIG. 4; for amidolytic activity against aromatic amino acids: phenylalanine and tyrosine, MjTET compared with PhTET2 (FIG. 4)
Method: The hydrolytic activity of MjTET on synthetic chromogenic and fluorogenic compounds was determined by using different aminoacyl-pNAs and aminoacyl-AMCs through the following procedure. Reactions were initiated by addition of 4 μg/mL of enzyme to a pre-warmed mixture containing 5 mM of the chromogenic or fluorogenic compound in 50 mM CHES, 150 mM KCl and 0.1 mM CoCl2, pH 8.2, in a total volume of 400 μl. Incubation was performed at 75° C. for 5 min. The quantity of liberated pNA was evaluated by measuring the absorbance at λ=405 nm in a JASCO V-630 spectrophotometer, and for AMC by measuring the fluorescence using excitation and emission wavelengths of 360 and 440 nm, respectively in a JASCO FP-8500 spectrofluorometer. Three replicates and two enzyme blanks were assayed for each experimental point. Additional enzymatic studies were performed in order to investigate MjTET capacities to hydrolyze longer substrates (H-Trp-Phe-Tyr-Ser(PO3H2)-Pro-Arg-pNA (SEQ ID NO: 3), H-Met-Trp-Ala-Glu-Asn-Lys (SEQ ID NO:4), H-Tyr-Asp-Thr-Ser-Ile-Val-Gln-Arg (SEQ ID NO:5), H-Asp-Ala-Tyr-Pro-Ser (SEQ ID NO: 6) and H-Glu-Gly-Ile. 2 μg/ml (final concentration) of MjTET were added to a pre-warmed mixture of 0.75 mM peptide, 50 mM CHES, 150 mM KCl, 0.1 mM CoCl2, pH 8.5. To avoid water evaporation, 20 μl of mineral oil were added on the top of the total volume. The reaction incubation was done at 85° C. during 6 min. Aliquot of 80 μl was then removed and added to 220 μl of 2% acetonitrile (ACN), 0.1% trifluoroacetic acid (TFA). Proteins were removed by centrifugation at 13,000 rpm during 15 min. 100 μl of the supernatant were retrieved and injected on Nova-Pak C18 column, (4 μm, 3.9×300 mm, (Waters)) in a HPLC purifier system (PerkinElmer), equilibrated with 2% ACN, 0.1% TFA. […] Chromatographic runs were carried out at room temperature.

[5] = system: H-Trp-Phe-Tyr-Ser(PO3H2)-Pro-Arg-pNA; assay: Hydrolysis of longer peptide substrates followed by reverse phase HPLC; type: biochemical; conditions: after 5 minutes, 85° C.
Method: The hydrolytic activity of MjTET on synthetic chromogenic and fluorogenic compounds was determined by using different aminoacyl-pNAs and aminoacyl-AMCs through the following procedure. Reactions were initiated by addition of 4 μg/mL of enzyme to a pre-warmed mixture containing 5 mM of the chromogenic or fluorogenic compound in 50 mM CHES, 150 mM KCl and 0.1 mM CoCl2, pH 8.2, in a total volume of 400 μl. Incubation was performed at 75° C. for 5 min. The quantity of liberated pNA was evaluated by measuring the absorbance at λ=405 nm in a JASCO V-630 spectrophotometer, and for AMC by measuring the fluorescence using excitation and emission wavelengths of 360 and 440 nm, respectively in a JASCO FP-8500 spectrofluorometer. Three replicates and two enzyme blanks were assayed for each experimental point. Additional enzymatic studies were performed in order to investigate MjTET capacities to hydrolyze longer substrates (H-Trp-Phe-Tyr-Ser(PO3H2)-Pro-Arg-pNA (SEQ ID NO: 3), H-Met-Trp-Ala-Glu-Asn-Lys (SEQ ID NO:4), H-Tyr-Asp-Thr-Ser-Ile-Val-Gln-Arg (SEQ ID NO:5), H-Asp-Ala-Tyr-Pro-Ser (SEQ ID NO: 6) and H-Glu-Gly-Ile. 2 μg/ml (final concentration) of MjTET were added to a pre-warmed mixture of 0.75 mM peptide, 50 mM CHES, 150 mM KCl, 0.1 mM CoCl2, pH 8.5. To avoid water evaporation, 20 μl of mineral oil were added on the top of the total volume. […]

[6] = system: peptide YFLMNENRYTSWNSE (SEQ ID NO: 2); assay: Time necessary to hydrolyse 50% of a 15 amino acid peptide at different temperatures; type: biochemical
Method: In order to evaluate the effect of the temperature on the activity of MjTET, the inventors evaluated the relative amount of intact peptides further to an incubation with the TET protein at different temperatures.
The inventors have measured the relative amount of intact peptide further to an incubation with MjTET.
MjTET activity was measured on the following peptide: YFLMNENRYTSWNSE (SEQ ID NO: 2). The inventors evaluated the time necessary to hydrolyse 50% of the peptide at different tempertaures

B1: MjTET: TET aminopeptidase (M42 family, dodecameric) from Methanocaldococcus jannaschii comprising SEQ ID NO: 1 (protein, listed as Methanococcus jannaschii)
chain: MSVVEYLKKLSKLHGISGREDSVREFMKKELEKYCDSVEIDNFGNLIAKRGNKGKKIMIAAHMDEIGLMVKYIDDNGFLKFTKIGGIYDPTILNQKVVVHGSKGDLIGVLGSKPPHRMKEEEKTKIIKYEDMFIDIGAESREEAIEMGVNIGTWVSFLSEVYDLGKNRLTGKAFDDRVGCAVLLEVMKRLSEEDIDCQVYAVGTVQEEVGLKGARVSAFKINPDVAIALDVTIAGDHPGIKKEDAPVDLGKGPVVGIVDASGRGLIAHPKVLDMIKAVSEKYKIDVQWEVGEGGTTDATAIHLTREGIPTGVISVPARYIHTPVEVIDKRDLEKTVELVYNCIKEVNNFF
For B1, the “percentage of LAP activity maintained” value [1] was “more than 50%”, the “temperature of maximal LAP activity” value ([2]; pH 8.5, 0.1 mM CoCl2, 20 to 90° C. tested) was 85 °C and the “LAP activity in mesophilic conditions” value ([2]; under 50° C.) was “No activity was detected”. The half-life [3] was “eight”, the “cleavage of tryptophan from substrate Nt end” value [4] was “unable to cleave” and the amidolytic activity ([4]; against Leu-pNA, 75° C., pH 8.2) was “optimal amidolytic activity”. For the same molecule, the amidolytic activity ([4]; against hydrophobic residues such as phenylalanine, methionine and tyrosine) was “significant amidolytic activities”, the amidolytic activity ([4]; aspartate, glutamate, cysteine and proline monoacyl substrates) was “no activity was detected” and the amidolytic activity ([4]; blocked residues and D-stereo configuration: Ac-Leu-pNA and D-Leu-pNA) was “no activity was detected”. The “amidolytic activity against aromatic amino acids” value [4] was “more efficient”, the amidolytic activity ([4]; polar and positively charged residues) was “Reduced activities” and the “hydrolysis of the original peptide substrate” value [5] was “almost hydrolyzed”. For the same molecule, the “Time necessary to hydrolyse 50% of the peptide” value ([6]; 20 ° C.) was 75 h, the “Time necessary to hydrolyse 50% of the peptide” value ([6]; 30 ° C.) was 55 h and the “Time necessary to hydrolyse 50% of the peptide” value ([6]; 40 ° C.) was 3,9 h. For the same molecule, the “Time necessary to hydrolyse 50% of the peptide” value ([6]; 50 ° C.) was 1.3 h, the “Time necessary to hydrolyse 50% of the peptide” value ([6]; 60 ° C.) was 1 h and the “Time necessary to hydrolyse 50% of the peptide” value ([6]; 70 ° C.) was 0.6 h. For the same molecule, the “Time necessary to hydrolyse 50% of the peptide” value ([6]; 80 ° C.) was 0.25 h.

B2: PhTET2: leucyl aminopeptidase TET complex of Pyrococcus horikoshii with broad activity against neutral amino acids (protein)
chain: MEVRNMVDYELLKKVVEAPGVSGYEFLGIRDVVIEEIKDYVDEVKVDKLGNVIAHKKGEGPKVMIAAHMDQIGLMVTHIEKNGFLRVAPIGGVDPKTLIAQRFKVWIDKGKFIYGVGASVPPHIQKPEDRKKAPDWDQIFIDIGAESKEEAEDMGVKIGTVITWDGRLERLGKHRFVSIAFDDRIAVYTILEVAKQLKDAKADVYFVATVQEEVGLRGARTSAFGIEPDYGFAIDVTIAADIPGTPEHKQVTHLGKGTAIKIMDRSVICHPTIVRWLEELAKKHEIPYQLEILLGGGTDAGAIHLTKAGVPTGALSVPARYIHSNTEVVDERDVDATVELMTKALENIHELKI
With B2 the “hydrolytic activity toward N-terminal phenylalanine residues” value [4] was “devoid of hydrolytic activity”, the “cleavage of tryptophan from substrate Nt end” value [4] was “unable to cleave” and the “amidolytic activity against aromatic amino acids” value [4] was “weak activity”. The “Time necessary to hydrolyse 50% of the peptide” value ([6]; 40 ° C.) was 0.5 h.

Reference: patent US20210002623A1, “AMINOPEPTIDASE AND ITS USES” (Centre national de la recherche scientifique, priority 2017, published 2021)
